Assay results published in paper PMC5916898, “Global profiling of protein–DNA and protein–nucleosome binding affinities using quantitative mass spectrometry”.

T1: ESRRA (Homo sapiens, UniProt P11474)
T1 sequence: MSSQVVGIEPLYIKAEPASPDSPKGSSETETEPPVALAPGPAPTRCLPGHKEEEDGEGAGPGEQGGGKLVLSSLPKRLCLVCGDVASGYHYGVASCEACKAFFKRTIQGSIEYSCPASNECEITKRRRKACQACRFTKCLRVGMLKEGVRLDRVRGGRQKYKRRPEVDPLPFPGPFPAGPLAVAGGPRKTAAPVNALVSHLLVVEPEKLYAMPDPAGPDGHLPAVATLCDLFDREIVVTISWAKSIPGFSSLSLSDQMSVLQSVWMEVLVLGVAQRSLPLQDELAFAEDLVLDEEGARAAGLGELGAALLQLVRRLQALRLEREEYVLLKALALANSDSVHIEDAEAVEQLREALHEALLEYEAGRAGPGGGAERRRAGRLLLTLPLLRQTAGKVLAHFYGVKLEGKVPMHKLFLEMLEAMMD

T2: GLIS2 (Homo sapiens, UniProt Q9BZE0)
T2 sequence: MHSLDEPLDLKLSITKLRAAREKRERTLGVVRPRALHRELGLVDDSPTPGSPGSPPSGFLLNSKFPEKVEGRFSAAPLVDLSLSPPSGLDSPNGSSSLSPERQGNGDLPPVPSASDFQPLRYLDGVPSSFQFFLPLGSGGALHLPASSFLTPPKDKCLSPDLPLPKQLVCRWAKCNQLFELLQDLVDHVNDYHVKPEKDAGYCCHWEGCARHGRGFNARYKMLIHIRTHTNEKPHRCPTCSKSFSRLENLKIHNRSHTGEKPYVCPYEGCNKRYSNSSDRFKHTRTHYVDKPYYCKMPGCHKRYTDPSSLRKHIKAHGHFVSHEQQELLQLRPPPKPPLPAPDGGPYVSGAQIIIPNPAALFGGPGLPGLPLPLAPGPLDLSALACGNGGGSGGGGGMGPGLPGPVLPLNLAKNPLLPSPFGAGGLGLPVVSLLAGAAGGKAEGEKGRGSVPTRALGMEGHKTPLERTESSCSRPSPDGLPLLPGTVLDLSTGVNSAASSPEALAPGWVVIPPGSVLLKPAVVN

T3: ZBTB20 (Homo sapiens, UniProt Q9HC78)
T3 sequence: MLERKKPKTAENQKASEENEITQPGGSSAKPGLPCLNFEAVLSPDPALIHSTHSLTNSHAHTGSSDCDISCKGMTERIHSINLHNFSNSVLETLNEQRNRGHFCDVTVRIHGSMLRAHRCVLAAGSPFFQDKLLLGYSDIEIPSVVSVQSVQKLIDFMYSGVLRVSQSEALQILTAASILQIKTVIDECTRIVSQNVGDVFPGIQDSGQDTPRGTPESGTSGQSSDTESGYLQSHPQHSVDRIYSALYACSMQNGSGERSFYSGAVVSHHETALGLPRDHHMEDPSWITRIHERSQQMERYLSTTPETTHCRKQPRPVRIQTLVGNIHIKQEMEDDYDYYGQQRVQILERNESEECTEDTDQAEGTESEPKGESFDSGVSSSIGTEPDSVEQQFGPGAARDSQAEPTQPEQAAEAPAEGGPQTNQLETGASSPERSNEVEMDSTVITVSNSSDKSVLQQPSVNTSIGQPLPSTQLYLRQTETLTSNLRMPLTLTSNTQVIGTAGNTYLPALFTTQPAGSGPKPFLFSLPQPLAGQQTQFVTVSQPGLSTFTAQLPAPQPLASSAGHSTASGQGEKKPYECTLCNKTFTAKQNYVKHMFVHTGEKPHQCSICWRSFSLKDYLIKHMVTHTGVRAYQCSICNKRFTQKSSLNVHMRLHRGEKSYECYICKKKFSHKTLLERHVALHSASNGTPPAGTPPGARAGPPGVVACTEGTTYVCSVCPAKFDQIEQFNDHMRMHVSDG


Assays:
Assay in all cases: pulldown; 150 mM NaCl, 50 mM Tris pH 8, 0.25% NP-40, 1 mM TCEP; 4 C, 2 h; 100 ug HeLa nuclear lysate
Conditions in all cases: protein: extract; label: 5' biotin (strand 1)
ESRRA = molecular target: T1, ESRRA
GLIS2 = molecular target: T2, GLIS2
SP4 = SP4 (Homo sapiens, UniProt Q02446)
Sequence of SP4 (Q02446 whole entry): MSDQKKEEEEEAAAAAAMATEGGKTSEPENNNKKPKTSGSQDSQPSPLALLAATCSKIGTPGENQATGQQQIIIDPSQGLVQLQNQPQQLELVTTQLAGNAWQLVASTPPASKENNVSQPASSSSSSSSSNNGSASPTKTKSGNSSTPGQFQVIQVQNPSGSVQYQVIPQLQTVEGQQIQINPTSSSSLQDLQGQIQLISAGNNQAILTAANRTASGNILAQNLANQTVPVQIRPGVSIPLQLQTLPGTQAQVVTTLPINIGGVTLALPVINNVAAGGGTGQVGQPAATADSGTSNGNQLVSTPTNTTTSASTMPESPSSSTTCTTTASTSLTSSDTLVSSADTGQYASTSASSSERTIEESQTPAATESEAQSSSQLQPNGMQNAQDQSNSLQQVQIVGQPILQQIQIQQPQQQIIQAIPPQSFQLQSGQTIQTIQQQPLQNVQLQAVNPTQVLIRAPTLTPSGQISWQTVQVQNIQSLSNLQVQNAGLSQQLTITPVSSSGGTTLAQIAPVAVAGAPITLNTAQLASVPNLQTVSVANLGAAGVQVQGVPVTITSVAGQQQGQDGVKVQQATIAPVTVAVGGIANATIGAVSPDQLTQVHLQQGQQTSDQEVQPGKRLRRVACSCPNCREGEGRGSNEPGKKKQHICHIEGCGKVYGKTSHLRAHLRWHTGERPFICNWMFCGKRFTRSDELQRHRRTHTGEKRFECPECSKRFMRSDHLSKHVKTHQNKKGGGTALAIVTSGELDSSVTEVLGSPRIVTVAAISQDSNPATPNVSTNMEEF

SMAD4 = SMAD4 (Homo sapiens, UniProt Q13485)
Sequence of SMAD4 (Q13485 whole entry): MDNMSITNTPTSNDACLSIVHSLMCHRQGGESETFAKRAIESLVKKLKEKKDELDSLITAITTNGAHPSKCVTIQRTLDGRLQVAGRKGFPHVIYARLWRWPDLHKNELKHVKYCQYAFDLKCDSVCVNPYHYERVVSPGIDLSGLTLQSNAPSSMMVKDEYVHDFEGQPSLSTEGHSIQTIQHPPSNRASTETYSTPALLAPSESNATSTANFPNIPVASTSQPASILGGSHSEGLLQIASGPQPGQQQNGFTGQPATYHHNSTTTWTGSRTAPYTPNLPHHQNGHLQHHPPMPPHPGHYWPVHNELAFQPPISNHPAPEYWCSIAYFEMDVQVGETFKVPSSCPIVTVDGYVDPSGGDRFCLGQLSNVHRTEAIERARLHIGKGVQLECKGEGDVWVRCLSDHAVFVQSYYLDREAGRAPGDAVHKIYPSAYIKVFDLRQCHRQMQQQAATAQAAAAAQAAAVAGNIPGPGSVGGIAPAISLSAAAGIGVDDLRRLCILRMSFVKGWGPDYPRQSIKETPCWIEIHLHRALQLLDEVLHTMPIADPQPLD

ZBTB20 = molecular target: T3, ZBTB20

Row | Binder | apparent K (half saturation) (ESRRA) [nM] | apparent K (half saturation) (GLIS2) [nM] | apparent K (half saturation) (SP4) [nM] | apparent K (half saturation) (SMAD4) [nM] | apparent K (half saturation) (ZBTB20) [nM]
1 | CTCF (dsDNA) DNA 1: TCAGAGTGGCGGCCAGCAGGGGGCGCCCTTGCCAGA DNA 2: TCTGGCAAGGGCGCCCCCTGCTGGCCGCCACTCTGA | 319 | 15 | 41.3 | 153 | 
2 | TATA-box (dsDNA) DNA 1: GCGGCGCTCTATATAAGTGGGCAGTG DNA 2: CACTGCCCACTTATATAGAGCGCCGC |  |  |  |  | 98.7
